T1: human IL-11 (human, UniProt P20809 22-199)
T1 sequence: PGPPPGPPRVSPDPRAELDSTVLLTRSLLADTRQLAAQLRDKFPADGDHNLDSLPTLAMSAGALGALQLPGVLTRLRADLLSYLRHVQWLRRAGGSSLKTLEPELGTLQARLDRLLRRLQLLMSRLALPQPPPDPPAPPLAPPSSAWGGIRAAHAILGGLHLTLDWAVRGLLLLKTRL

T2: murine IL-11 (mouse, UniProt P47873 22-199)
T2 sequence: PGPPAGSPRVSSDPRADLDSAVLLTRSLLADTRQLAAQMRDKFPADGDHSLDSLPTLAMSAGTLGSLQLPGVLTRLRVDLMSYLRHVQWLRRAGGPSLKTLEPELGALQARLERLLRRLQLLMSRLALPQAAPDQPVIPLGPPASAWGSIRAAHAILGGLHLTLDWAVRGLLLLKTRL

T3: human IL2Ra (human, UniProt P01589 22-240, limits assumed)
T3 construct: bought protein, coated on the plate; also called hIL2RA; IL-2 receptor alpha
T3 sequence (looked up): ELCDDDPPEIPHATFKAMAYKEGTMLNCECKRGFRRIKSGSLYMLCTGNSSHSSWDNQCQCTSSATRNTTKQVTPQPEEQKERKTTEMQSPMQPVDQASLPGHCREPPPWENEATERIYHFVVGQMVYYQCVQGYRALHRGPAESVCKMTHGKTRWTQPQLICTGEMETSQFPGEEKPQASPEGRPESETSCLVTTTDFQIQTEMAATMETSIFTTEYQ


What was measured:
[1] = target: T1, human IL-11; assay: cell-based or functional assay
[2] = target: T2, murine IL-11; assay: cell-based or functional assay
[3] = target: T3, human IL2Ra; assay: IL2Ra direct binding ELISA, signal ratio to isotype control
Method: IL2RA (Peprotech, Germany, #200-02RC) was coated at 1 or 0 μg/ml (buffer only control) in 30 μl coating buffer (Candor, #113500) per well on a 384 well microtiter plate (Maxisorb, Nunc, #460518) over night at 4-8° C. After two washes with 50 μl/well washing buffer (PBS+0.05% Tween, pH 7.4), the plates were incubated for two hours at room temperature with 50 μl/well SmartBlock (Candor, #113500). After blocking, the plates were washed three times with washing buffer. Then, a dilution series of the respective antibody (1E-7 [M] down to 2E-13 [M]) in PBS+0.05% Tween, 10% SmartBlock were added in 30 μl to the microtiter plate and incubated for 90 min at room temperature. After three additional washes, 30 μl anti mouse IgG HRP-conjugated antibody (Biotechne, HAF007), diluted 1:1000 in PBS+0.05% Tween (pH 7.4), were added per well and incubated for one hour. After three additional washes, a mixture of Amplex red (Invitrogen, #12222, 10 mM stock solution in DMSO) 1:1000 diluted in PBS and H2O2 (30%, Merck, #107209)) diluted 1:10000 in PBS were added as substrate with 30 μl per well and incubated for 20 min in the dark. Relative fluorescence was measured with a microtiter plate reader at 535/590 nm.
Next, the 42 antibodies were subjected to an IL2Ra binding ELISA as described in Example 20.

Binder	RGA Efficacy (%) [1] [%]	RGA IC50 [1] [nM]	RGA Efficacy (%) [2] [%]	RGA IC50 [2] [nM]	hIL2RA ELISA Binding: Ratio to Isotpye [3] [ratio]
TPP-26311 (antibody, V domains shown) VH: EVQLLESGGGLVQPGGSLRLSCAASGFTFSSYGMHWVRQAPGKGLEWVSVISYDGSYKYYADSVKGRFTISRDNSKNTLYLQMNSLRAEDTAVYYCAAGVPDYWGQGTLVTVSS VL: QSVLTQPPSASGTPGQRVTISCTGSSSNIGAGYDHHWYQQLPGTAPKLLIYSNNERPSGVPDRFSGSKSGTSASLAISGLRSEDEADYYCAAWDDSLNGPVFGGGTKLTVL	38.1	1.9	86.2	2.2	292
TPP-26313 (antibody, V domains shown) VH: EVQLLESGGGLVQPGGSLRLSCAASGFTFSSYGMHWVRQAPGKGLEWVSVISYDGSYKYYADSVKGRFTISRDNSKNTLYLQMNSLRAEDTAVYYCAAGVPDYWGQGTLVTVSS VL: QSVLTQPPSASGTPGQRVTISCTGSSSNIGAYYDVHWYQQLPGTAPKLLIYSNNERPSGVPDRFSGSKSGTSASLAISGLRSEDEADYYCAAWDDSLNGPVFGGGTKLTVL	76.1	1.7	96.2	0.66	195
TPP-26314 (antibody, V domains shown) VH: EVQLLESGGGLVQPGGSLRLSCAASGFTFSSYGMHWVRQAPGKGLEWVSVISYDGSYKYYADSVKGRFTISRDNSKNTLYLQMNSLRAEDTAVYYCAAGVPDYWGQGTLVTVSS VL: QSVLTQPPSASGTPGQRVTISCTGSSSNIGAGYDVHWYQQLPGTAPKLLIYSNNERPSGVPDRFSGSKSGTSASLAISGLRSEDEADYYCAAWDWSLNGPVFGGGTKLTVL	69.3	1.1	94.4	0.8	455
TPP-26315 (antibody, V domains shown) VH: EVQLLESGGGLVQPGGSLRLSCAASGFTFSSYGMHWVRQAPGKGLEWVSVISYDGSYKYYADSVKGRFTISRDNSKNTLYLQMNSLRAEDTAVYYCAAGVPDYWGQGTLVTVSS VL: QSVLTQPPSASGTPGQRVTISCTGSSSNIGAHYDVHWYQQLPGTAPKLLIYSNNERPSGVPDRFSGSKSGTSASLAISGLRSEDEADYYCAAWDDSLNGPVFGGGTKLTVL	68.3	1.7	91.5	1.5	205
TPP-26316 (antibody, V domains shown) VH: EVQLLESGGGLVQPGGSLRLSCAASGFTFSSYGMHWVRQAPGKGLEWVSVISYDGSYKYYADSVKGRFTISRDNSKNTLYLQMNSLRAEDTAVYYCAAGVPDYWGQGTLVTVSS VL: QSVLTQPPSASGTPGQRVTISCTGSSSNIGAGYDVHWYQQLPGTAPKLLIYSNNERPSGVPDRFSGSKSGTSASLAISGLRSEDEADYYCAAWDMSLNGPVFGGGTKLTVL	69.4	1.6	90.4	1	221
TPP-26317 (antibody, V domains shown) VH: EVQLLESGGGLVQPGGSLRLSCAASGFTFSSYGMHWVRQAPGKGLEWVSVISYDGSYKYYADSVKGRFTISRDNSKNTLYLQMNSLRAEDTAVYYCAAGVPDYWGQGTLVTVSS VL: QSVLTQPPSASGTPGQRVTISCTGSSSNIGAEYDVHWYQQLPGTAPKLLIYSNNERPSGVPDRFSGSKSGTSASLAISGLRSEDEADYYCAAWDDSLNGPVFGGGTKLTVL	69.9	0.99	93.2	1.2	31
TPP-26318 (antibody, V domains shown) VH: EVQLLESGGGLVQPGGSLRLSCAASGFTFSSYGMHWVRQAPGKGLEWVSVISYDGSYKYYADSVKGRFTISRDNSKNTLYLQMNSLRAEDTAVYYCAAGVPDYWGQGTLVTVSS VL: QSVLTQPPSASGTPGQRVTISCTGSSSNIGAGYFVHWYQQLPGTAPKLLIYSNNERPSGVPDRFSGSKSGTSASLAISGLRSEDEADYYCAAWDDSLNGPVFGGGTKLTVL	45.9	2.4	82.3	4.7	267
TPP-26319 (antibody, V domains shown) VH: EVQLLESGGGLVQPGGSLRLSCAASGFTFSSYGMHWVRQAPGKGLEWVSVISYDGSYKYYADSVKGRFTISRDNSKNTLYLQMNSLRAEDTAVYYCAAGVPDYWGQGTLVTVSS VL: QSVLTQPPSASGTPGQRVTISCTGSSSNIGAGYDVHWYQQLPGTAPKLLIYSNNEKPSGVPDRFSGSKSGTSASLAISGLRSEDEADYYCAAWDDSLNGPVFGGGTKLTVL	48.6	7.4	91.1	1.5	235
TPP-26320 (antibody, V domains shown) VH: EVQLLESGGGLVQPGGSLRLSCAASGFTFSSYGMHWVRQAPGKGLEWVSVISYDGSYKYYADSVKGRFTISRDNSKNTLYLQMNSLRAEDTAVYYCAAGVPDYWGQGTLVTVSS VL: QSVLTQPPSASGTPGQRVTISCTGSSSNIGAGYDVHWYQQLPGTAPKLLIYSNEERPSGVPDRFSGSKSGTSASLAISGLRSEDEADYYCAAWDDSLNGPVFGGGTKLTVL	70.3	7.4	100	1.5	260

Results, then the binder that gave them:

RGA Efficacy (%) [1] [%]	RGA IC50 [1] [nM]	RGA Efficacy (%) [2] [%]	RGA IC50 [2] [nM]	hIL2RA ELISA Binding: Ratio to Isotpye [3] [ratio]	Binder
71.3	2.1	93.5	1.1	182	TPP-26321 (antibody, V domains shown) VH: EVQLLESGGGLVQPGGSLRLSCAASGFTFSSYGMHWVRQAPGKGLEWVSVISYDGSYKYYADSVKGRFTISRDNSKNTLYLQMNSLRAEDTAVYYCAAGVPDYWGQGTLVTVSS VL: QSVLTQPPSASGTPGQRVTISCTGSSSNIGAGYDVHWYQQLPGTAPKLLIYSNNERPSGVPDRFSGSKSGTSASLAISGLRSEDEADYYCAAWDLSLNGPVFGGGTKLTVL
57.6	2	95.9	0.92	256	TPP-26323 (antibody, V domains shown) VH: EVQLLESGGGLVQPGGSLRLSCAASGFTFSSYGMHWVRQAPGKGLEWVSVISYDGSYKYYADSVKGRFTISRDNSKNTLYLQMNSLRAEDTAVYYCAAGVPDYWGQGTLVTVSS VL: QSVLTQPPSASGTPGQRVTISCTGSSSNIGAGYDVHWYQQLPGTAPKLLIYSNNERPSGVPDRFSGSKSGTSASLAISGLRSEDEADYYCAAWDGSLNGPVFGGGTKLTVL
59	1.5	92.4	1.3	247	TPP-26324 (antibody, V domains shown) VH: EVQLLESGGGLVQPGGSLRLSCAASGFTFSSYGMHWVRQAPGKGLEWVSVISYDGSYKYYRDSVKGRFTISRDNSKNTLYLQMNSLRAEDTAVYYCAAGVPDYWGQGTLVTVSS VL: QSVLTQPPSASGTPGQRVTISCTGSSSNIGAGYDVHWYQQLPGTAPKLLIYSNNERPSGVPDRFSGSKSGTSASLAISGLRSEDEADYYCAAWDDSLNGPVFGGGTKLTVL
81.4	1.7	93	1.3	542	TPP-26325 (antibody, V domains shown) VH: EVQLLESGGGLVQPGGSLRLSCAASGFTFSWYGMHWVRQAPGKGLEWVSVISYDGSYKYYADSVKGRFTISRDNSKNTLYLQMNSLRAEDTAVYYCAAGVPDYWGQGTLVTVSS VL: QSVLTQPPSASGTPGQRVTISCTGSSSNIGAGYDVHWYQQLPGTAPKLLIYSNNERPSGVPDRFSGSKSGTSASLAISGLRSEDEADYYCAAWDDSLNGPVFGGGTKLTVL
72	5.4	83	2	516	TPP-26326 (antibody, V domains shown) VH: EVQLLESGGGLVQPGGSLRLSCAASGFTFSYYGMHWVRQAPGKGLEWVSVISYDGSYKYYADSVKGRFTISRDNSKNTLYLQMNSLRAEDTAVYYCAAGVPDYWGQGTLVTVSS VL: QSVLTQPPSASGTPGQRVTISCTGSSSNIGAGYDVHWYQQLPGTAPKLLIYSNNERPSGVPDRFSGSKSGTSASLAISGLRSEDEADYYCAAWDDSLNGPVFGGGTKLTVL
